Measured values as given in patent US9074002B2, “PTP1B inhibitors” (Cold Spring Harbor Laboratory, priority 2009, dated 2015).
“Also recorded” adds a separate entry of the source.

T1: endogenous PTP1B under reducing conditions (Homo sapiens, UniProt P18031)
T1 construct: endogenous in cells; host or cells: 293T cells (transfected only with the scFv intrabody)
T1 sequence (P18031 1-435): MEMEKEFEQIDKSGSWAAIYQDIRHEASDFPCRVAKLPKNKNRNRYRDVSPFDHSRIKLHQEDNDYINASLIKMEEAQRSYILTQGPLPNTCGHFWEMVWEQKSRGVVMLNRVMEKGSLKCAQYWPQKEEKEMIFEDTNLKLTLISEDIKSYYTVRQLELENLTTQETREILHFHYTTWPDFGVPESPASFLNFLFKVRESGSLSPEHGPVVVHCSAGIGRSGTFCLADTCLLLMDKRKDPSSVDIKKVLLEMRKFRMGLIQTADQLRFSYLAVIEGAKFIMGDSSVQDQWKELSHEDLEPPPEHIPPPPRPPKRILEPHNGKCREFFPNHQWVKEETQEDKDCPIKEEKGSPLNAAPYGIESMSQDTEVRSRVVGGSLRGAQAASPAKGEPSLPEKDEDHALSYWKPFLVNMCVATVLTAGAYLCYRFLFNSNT

T2: endogenous PTP1B-OX (Homo sapiens, UniProt P18031)
T2 construct: endogenous in cells; host or cells: 293T cells (transfected only with the scFv intrabody)
T2 sequence (P18031 1-435): T1 sequence (P18031 1-435)

T3: PTP1B (reduced, active) (Homo sapiens, UniProt P18031)
T3 construct: made in house; host or cells: E. coli BL21 (pET19b)
T3 sequence (P18031 3-277 limits assumed): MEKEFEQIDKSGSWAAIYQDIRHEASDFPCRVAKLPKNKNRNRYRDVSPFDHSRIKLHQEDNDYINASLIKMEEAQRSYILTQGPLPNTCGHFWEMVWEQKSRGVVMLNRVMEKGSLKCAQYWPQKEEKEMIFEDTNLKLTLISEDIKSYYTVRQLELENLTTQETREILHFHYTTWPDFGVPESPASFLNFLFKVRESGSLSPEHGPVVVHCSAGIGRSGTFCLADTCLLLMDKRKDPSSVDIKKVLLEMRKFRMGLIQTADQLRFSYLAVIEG

T4: PTP1B under reducing condition (Homo sapiens, UniProt P18031)
T4 construct: made in house; host or cells: E. coli BL21 (pET19b)
T4 sequence (P18031 3-277 limits assumed): T3 sequence (P18031 3-277 limits assumed)

T5: PTP1B-OX (Homo sapiens, UniProt P18031)
T5 construct: made in house; host or cells: E. coli BL21 (pET19b)
T5 sequence (P18031 3-277): T3 sequence (P18031 3-277 limits assumed)

B1: scFv67: scFv, SEQ ID NO: 100 and 161 (protein)
scFv: MKKTAIAIAVALAGFATVAQAALTQPSSVSANPGGTVKITCSGSSSAYGYGWYQQKSPGSAPVTVIYNNNKRPSNIPSRFSGSKSGSTGTLTITGVQAEDEAVYFCGSEDSSTDAIFGAGTTLTVLGQSSRSSAVTLDESGGGLQTPGGALSLVCKASGFTFSSYDMGWVRQAPGKGLEYVAGITNDGRYASYGSAVDGRATISRDNGQSTVRLQLNNLRAEDTGTYYCARDDGSGWTGNTIDTWGHGTEVIVSSTSGQAGQHHHHHHGAYPYDVPDYAS
B2: scFv34: scFv, SEQ ID NO: 67 and 163 (protein)
scFv: MKKTAIAIAVALAGFATVAQAALTQPSSVSANPGGTVEITCSGSSGSHGWYQQKSPGSAPVTVIYDNTNRPSDIPSRFSGSLSGSTATLTITGVQAEDEAVYYCGSFDTNSDSGYVGIFGARTTLTVLGQSSRSSTETLDDSGGGLQTPGGALSLVCNASGFTFISYDMFWVRQAPGKGLEFVTQINSAGSYTNYGSAVNGRATISRNDGQITVRLQLNDLTADDTGIYFCAESASGYDYSGSDAGDINAWGHGTEVVVSSTSGQAGQHHHHHHGAYPYDVPDYAS
B3: scFv102: scFv, SEQ ID NO: 130 and 162 (protein)
scFv: MKKTAIAIAVALAGFATVAQAALTQPSSVSANPGETVKITCSGGSGSYGWYQQESPGSAPVTVIYYNDKRPSDIPSRFSGSASGSTATLTIAGVRAEDEAVYFCGSWDSSTSAGIFGAGTALTVLGQSSRSSAVTLDESGGGLQTPGGGLSLVCKASGFSSSHGMGWMRQAPGKGLEFVAGIRSDGSSTAYGAAVDGRATITRDDGQSTVTLQLNNLRAEDTATYFCAKTNSYNSAGIIDAWGHGTEVIVSSTSGQAGQHHHHHHGAYPYDVPDYAS
B4: scFv20: scFv, SEQ ID NO: 53 (protein)
scFv: MKKTAIAIAVALAGFATVAQAALTQPSSVSANLGGIVEITCSGSSGSYGWYQQKSPGSAPVTVIYYNDKRPSNIPSRFSGSGSGSTNTLTIAGVRAEDEAVYYCGNEDSSGAAFGAGTTLTVLGQSSRSSAVTLDESGGGLQTPGGGLSLVCKASGFTFSDYDMFWVRQAPSKGLEFVAAITSSGTGTKYGAAVKGRATISKDNGQRTVRLQLNSLGAEDTGTYYCARSDADSTTWSAGEIDAWGHGTEVIVSSTSGQAGQHHHHHHGAYPYDVPDYAS

Tests used:
[1] = target: T1, endogenous PTP1B under reducing conditions; test: Intrabody interaction in 293T cells under reducing condition (NAC, TCEP) (Ni-NTA pull down / immunoprecipitation); type: cell-based; conditions: 20 mM NAC, lysis buffer with 2 mM TCEP, FIGS. 11, 12
Experimental: (§1) One of the positive candidate scFvs (scFv45) was cloned in pcDNA3.2/V5-GW/D-TOPO expression vector and transiently expressed in mammalian cells as stable intracellular antibody (aka intrabody) (FIG. 10). To detect PTP1B-OX and scFv45 interaction in mammalian cells, scFv45 was overexpressed in 293T cells as described herein (See Example 4) and 48 hours post transfection the cells were serum-starved for 16 hours in growth medium (DMEM, low glucose) without serum (FBS), then incubated with 1 mM H2O2 (in growth medium without serum) for 5 minutes at 37° C. or treated with 20 mM NAC (in growth medium without serum) for 1 hour at 37° C. Cells treated with H2O2 were washed twice with cold (4° C.) PBS and lysed in lysis buffer (25 mM HEPES, pH 7.4, 150 mM NaCl, 0.25% Deoxychloate, 1% TritonX-100, 25 mM NaF, 10 mM MgCl2, 1 mM EDTA, 10% Glycerol, 0.5 mM PMSF, 10 mM Benzamidine, protease inhibitor cocktail). Cells treated with NAC were lysed with lysis buffer containing 2 mM TCEP to ensure a post-lysis reducing environment. Interaction between PTP1B and intrabody45 were tested by pulling down the protein complex from 1 mg of total cell lysate with Ni-NTA agarose or by immunoprecipitating PTP with anti-PTP1B (FG6). For the pull down experiment, Ni-NTA agarose beads were incubated with the lysates (both oxidized and reduced) at 4° C. Protein complex bound to the Ni-NTA agarose beads was pulled down and washed three times; first with lysis buffer containing 20 mM imidazole followed by two more washes with wash buffer (PBS, pH 7.4, 20 mM imidazole, 0.05% BSA, 0.05% Tween-20 and protease inhibitors). Applicant used 20 mM imidazole in the wash buffer to reduce the non-specific binding of proteins with the Ni-NTA agarose beads. The complex was eluted with wash buffer containing 500 mM imidazole with gentle shaking at 4° C. and the eluate was mixed with SDS sample buffer with DTT. For the immunoprecipitation experiments, 1 mg of total cell lystates (both oxidized and reduced) was incubated with anti-PTP1B antibody (FG6) at 4° C. The interacting protein complex was immunoprecipitated after incubating the lysate-antibody mixture with protein A/G Sepharose at 4° C. After immunoprecipitation, Sepharose beads were washed three times; first with lysis buffer followed by two more washes with wash buffer (PBS, pH 7.4, 0.05% BSA, 0.05% Tween-20 and protease inhibitors). The Sepharose beads were then heated at 90° C. in 2×SDS sample buffer with DTT. Proteins from the pulled down or immunoprecipitated complex were separated by SDS-PAGE. PTP was detected with anti-PTP1B antibody (FG6) and the intrabodies were detected with anti-HA (3F10)-HRP antibody [anti-HA (3F10)-HRP, Roche] by immunoblotting.
In the initial in vitro phosphatase screening assay using reversibly oxidized (with H2O2) recombinant PTP1B, Applicant found four different PTP1B-OX specific scFvs (scFv45, scFv57, scFv64 and scFv106) from the initial pool of 12 different scFvs. […] Applicant has also shown that scFv45, expressed as an intrabody in mammalian cells, can bind to endogenous PTP1B-OX but not endogenous PTP under reducing conditions. Further assessment was carried out to identify additional PTP1B-OX-specific intrabodies. Additional scFvs have been subcloned in pcDNA3.2/V5-GW/D-TOPO mammalian expression vector (FIG. 10) from their respective phagemid constructs. […]

endogenous PTP1B-OX = target: T2, endogenous PTP1B-OX; test: Intrabody interaction in 293T cells treated with H2O2 (Ni-NTA pull down / anti-PTP1B immunoprecipitation); type: cell-based; conditions: 1 mM H2O2 5 minutes, FIGS. 11, 12
Experimental: as §1
In the initial in vitro phosphatase screening assay using reversibly oxidized (with H2O2) recombinant PTP1B, Applicant found four different PTP1B-OX specific scFvs (scFv45, scFv57, scFv64 and scFv106) from the initial pool of 12 different scFvs. […] Applicant has also shown that scFv45, expressed as an intrabody in mammalian cells, can bind to endogenous PTP1B-OX but not endogenous PTP under reducing conditions. Further assessment was carried out to identify additional PTP1B-OX-specific intrabodies. Additional scFvs have been subcloned in pcDNA3.2/V5-GW/D-TOPO mammalian expression vector (FIG. 10) from their respective phagemid constructs. After transient overexpression of these scFvs as intrabodies in 293T cells, the interaction between endogenous PTP1B and these intrabodies in both H2O2-treated cells and cells was observed under reducing condition (treated with NAC and lysed with lysis buffer containing TCEP). […] All can be used in the methods and compositions described herein. Additional scFvs, such as some or all of the 137 selected individual scFvs from the library, can be similarly tested by in vitro screening and/or by binding assay in mammalian cells.

PTP1B (reduced, active) = target: T3, PTP1B (reduced, active); test: Direct effect of scFvs/antibodies on PTP1B phosphatase activity (32P-pTyr-RCML substrate); type: biochemical; conditions: 32P-labeled pTyr-RCML substrate, FIG. 1
Experimental: Applicant's hypothesis was that scFvs that are able to bind to and stabilize the oxidized conformation of PTP1B in solution would inhibit reactivation by reducing agent, but have no direct inhibitory effect on phosphatase activity in assays in vitro. Activity was measured using ^32P-labeled pTyr-Reduced Carboxamidomethylated and Maleylated Lysozyme as substrate. Applicant established conditions in which wild type PTP1B could be reversibly oxidized in vitro. PTP1B was inactivated following addition of H2O2. […] Applicant validated this approach further, by testing the effects of expressing one of the scFvs (scFv45) as a single chain antibody fragment “intrabody” to PTP1B, using 293T cells as the expression system. This intrabody was expressed transiently and then tested for effects on insulin signaling, focusing initially on the tyrosine phosphorylation status of the beta-subunit of the insulin receptor and insulin receptor substrate (IRS-1).
Reduced carboxamidomethylated and maleylated lysozyme (RCML) was labeled with ^32P using recombinant GST-FER kinase to stoichiometries up to 0.8 (mol ^32P incorporated/mol of protein). This ^32P-Labeled phospho-tyrosyl RCML was used as the substrate in the in-solution phosphatase assay for screening the conformation sensor scFvs. Recombinant PTP1B was reversibly oxidized and transiently inactivated with H2O2 (5× molar excess of the protein). […] Purified bacterially expressed scFvs (100× molar excess of PTP1B) were incubated with PTP after H2O2 treatment and its removal and the effect of individual scFv on stabilizing the reversibly oxidized conformation was assessed by the phosphatase assay under reducing condition.
In order to screen the isolated scFvs for those that inhibit reactivation of PTP1B-OX by reducing agent, but have no direct inhibitory effect on phosphatase activity in assays in vitro, the effect of six scFvs (scFv20, scFv34, scFv45, scFv57, scFv64 and scFv106) on PTP1B activity was determined. PTP1B activity was measured using 32P-labeled pTyr-Reduced Carboxamidomethylated and Maleylated Lysozyme as substrate (FIGS. 1 and 2). Addition of the reducing agent TCEP alone had no substantial effect in PTP1B activity was assessed.

[2] = target: T4, PTP1B under reducing condition; test: In vitro binding assay, purified recombinant PTP1B (37 kDa) and purified scFv, Ni-NTA pull down, reducing condition; conditions: with 2 mM TCEP; FIG. 9
Experimental: (§2) They established conditions in which PTP1B is reversibly oxidized by H2O2 in solution (FIG. 8). An artificial protein substrate RCML, in which tyrosine was phosphorylated with ^32P using recombinant GST-FER kinase was used in this assay to measure the phosphatase activity. Recombinant PTP (37 kDa) was incubated with increasing concentration (50 μM to 100 mM) of H2O2. A quick buffer exchange was done to remove the H2O2 and reducing agent (TCEP) was added to reactivate the enzyme.
(§3) In the in vitro binding assay, purified PTP was reversibly oxidized with […] followed by a quick buffer exchange to remove H2O2 (FIG. 8). Purified scFv was incubated in molar excess with PTP1B-OX or with PTP under reducing condition (with 2 mM TCEP) in binding buffer (20 mM HEPES, pH 7.4, 300 mM NaCl, 0.05% BSA, 0.05% Tween-20 and 10 mM imidazole) for 2 hours at 4° C. Ni-NTA agarose was added and incubated for one hour at 4° C. Protein complex bound to Ni-NTA agarose beads was pulled down and washed (three times, 5 minutes each, at 4° C.) with binding buffer containing 20 mM imidazole to reduce non-specific binding to the beads. The protein complex was eluted from the Ni-NTA agarose beads with 500 mM imidazole (in binding buffer, pH 7.4) for 15 minutes at 4° C. with gentle shaking. The complex was separated by SDS-PAGE and PTP1B was detected with anti-PTP1B antibody (FG6) and scFv was detected with anti-HA antibody [anti-HA (3F10)-HRP, Roche] by immunoblotting. Eight different scFvs (scFvs 20, 21, 24, 28, 45, 48, 57, and 105), expressed and purified from bacterial cultures were tested by this in vitro binding experiment.

PTP1B-OX = target: T5, PTP1B-OX; test: In vitro binding assay, purified recombinant PTP1B (37 kDa) and purified scFv, Ni-NTA pull down; conditions: purified proteins, scFv in molar excess, 2 hours at 4° C.; FIG. 9
Experimental: as §2, §3

Row | Molecule | binding of intrabody to endogenous PTP1B under reducing conditions [1] | binding of intrabody to endogenous PTP1B-OX (endogenous PTP1B-OX) | direct effect on PTP1B activity (PTP1B (reduced, active)) | binding to PTP1B under reducing condition in vitro [2] | binding to PTP1B-OX in vitro (PTP1B-OX)
1 | B1 | not in the presence of NAC and TCEP | bound to endogenous PTP1B-OX strongly; also recorded: co-pulldown of PTP1B-OX in the presence of H2O2 | – | – | –
2 | B2 | – | bound weakly to PTP1B-OX | no direct inhibition of PTP activity | – | –
3 | B3 | not in the presence of NAC and TCEP | bound to endogenous PTP1B-OX strongly; also recorded: co-pulldown of PTP1B-OX in the presence of H2O2 | – | – | –
4 | B4 | – | – | no direct inhibition of PTP activity | no significant binding | no significant binding
